Legend:
CD30-Fc fusion protein = molecular target: T1, CD30-Fc fusion protein (human, UniProt P28908 19-385); assay: ELISA
T1 construct: extracellular domain; Negative control antigen; not shown: human IgG1 hinge and Fc of pRB-2k1-CD30
T1 sequence (looked up): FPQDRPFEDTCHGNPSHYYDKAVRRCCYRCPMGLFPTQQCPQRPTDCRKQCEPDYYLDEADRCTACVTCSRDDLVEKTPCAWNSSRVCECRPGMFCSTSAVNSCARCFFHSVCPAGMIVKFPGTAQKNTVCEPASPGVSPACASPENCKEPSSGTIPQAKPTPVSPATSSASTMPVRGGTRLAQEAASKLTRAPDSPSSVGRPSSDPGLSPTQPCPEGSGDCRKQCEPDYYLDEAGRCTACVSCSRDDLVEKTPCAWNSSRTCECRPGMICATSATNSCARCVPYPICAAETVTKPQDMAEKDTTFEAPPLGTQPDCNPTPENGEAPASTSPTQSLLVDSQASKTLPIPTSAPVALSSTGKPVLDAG

[1] = molecular target: T2, IRTA2 extracellular domain-Fc fusion protein (human, UniProt Q96RD9 16-851); assay: equilibrium ELISA (Friguet)
T2 construct: extracellular domain; also called IRTA2-Fc; IRTA2-HFc; not shown: human IgG1 hinge and Fc
T2 sequence (looked up): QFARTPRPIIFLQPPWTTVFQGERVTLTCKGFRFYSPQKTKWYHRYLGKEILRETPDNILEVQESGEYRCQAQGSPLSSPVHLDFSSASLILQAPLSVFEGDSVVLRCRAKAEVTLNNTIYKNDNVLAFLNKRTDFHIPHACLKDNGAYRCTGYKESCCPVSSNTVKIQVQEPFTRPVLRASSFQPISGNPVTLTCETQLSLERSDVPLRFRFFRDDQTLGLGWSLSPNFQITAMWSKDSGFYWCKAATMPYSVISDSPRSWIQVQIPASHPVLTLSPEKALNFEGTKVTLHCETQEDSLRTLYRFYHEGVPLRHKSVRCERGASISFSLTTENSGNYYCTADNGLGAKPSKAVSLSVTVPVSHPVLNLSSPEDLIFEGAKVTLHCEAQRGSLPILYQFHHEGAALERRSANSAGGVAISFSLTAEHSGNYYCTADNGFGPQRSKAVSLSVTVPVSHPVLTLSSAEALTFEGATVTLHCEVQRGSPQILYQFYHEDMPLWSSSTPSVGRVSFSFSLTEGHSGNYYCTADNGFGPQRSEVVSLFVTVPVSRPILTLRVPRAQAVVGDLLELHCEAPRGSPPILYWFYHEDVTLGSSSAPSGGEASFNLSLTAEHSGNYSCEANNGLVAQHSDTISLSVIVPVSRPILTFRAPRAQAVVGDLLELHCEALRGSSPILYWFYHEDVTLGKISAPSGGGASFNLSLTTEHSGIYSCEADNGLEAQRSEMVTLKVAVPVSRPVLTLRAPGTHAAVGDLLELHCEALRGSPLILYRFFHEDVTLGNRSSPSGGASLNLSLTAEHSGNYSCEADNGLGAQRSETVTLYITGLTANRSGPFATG
Experimental: ELISA. In a typical indirect ELISA for the screening of hybridomas, microtiter plates (MaxiSorp; Nalge Nunc, Rochester, N.Y.) were coated with 100 ng/50 μl/well of goat anti-human IgG in phosphate buffered saline (PBS) for 2 hours at room temperature. Next, 50 ng/100 μl/well of IRTA2-Fc in blocking buffer (25% DMEM, 5% FBS, 25 mM HEPES, 0.5% bovine serum albumin, 0.1% sodium azide in PBS) was added to each well and incubated for 2 hours at room temperature. After washing with PBS containing 0.05% Tween 20, 50 μl of the hybridoma supernatants were added and incubated for 2 hours at room temperature. After washing, the bound MAbs were detected by a 2-hour incubation with horseradish peroxidase (HRP)-labeled goat anti-mouse IgG (Jackson ImmunoResearch, Grove, Pa.) followed by tetramethylbenzidine (TMB) substrate kit (Pierce, Rockford, Ill.). In some experiments, other IRTA-Fc fusion proteins were used instead of IRTA2-Fc.
Affinity Determination. Affinities (dissociation constant, Kd) of the anti-IRTA2 MAbs to IRTA2-Fc were determined by ELISA as previously described (Friguet et al., J Immunol Methods 77:305-19, 1985). Briefly, each MAb was incubated with various concentrations of IRTA2-Fc at room temperature for 20 hours to reach equilibrium; then the amount of MAb that remains unbound at equilibrium was measured by the indirect ELISA as described above.

- binding result (CD30-Fc fusion protein): no binding
- Kd [1]: 1.2 nM
B1: F25 (antibody, IgG2a, V domains shown)
VH: EVQLQQSGPELVKPGTSVKMSCKASGYSFTGYFMNWMMQNHGKSLEWIGRINLYNGDTFYNQKFKDKATLTVDKSSNTVHMEFRSLASEDSAVYYCASSLYYFDYWGQGTTFTVSS
VL: DIVMTQSHKFMSTSVGDRVNITCKASQDVGTNVAWYQQKPGQSPKLLIYWASTRQTGVPDRFTGSGSGTDFTLTISNVQSEDLSDYFCQQYSSYPLTFGAGTKLELKR
notes: mouse hybridoma MAb, IgG2a, kappa; also called MAb F25; biotin-MAb F25
